Data as given in patent publication US20240352128A1 (NANJING GENSCRIPT BIOTECH, published 2024).
Substitutions are numbered along the chain they refer to.

B1: pTT5-AR8820-1.1mIgG1Fc (Fc fusion)
heavy: QVQLVESGGGVVQPGGSLRLSCAASGSSISRYAMAWYRQAPGKGRELVAVVRITGSPIYADFVGGRFTISRDNSKNTLYLQMNSLRAEDTAVYYCATGNFNTYTRRYSPSETWGKGTTVTVSSVPRDCGCKPCICTVPEVSSVFIFPPKPKDVLTITLTPKVTCVVVDISKDDPEVQFSWFVDDVEVHTAQTQPREEQFNSTFRSVSELPIMHQDWLNGKEFKCRVNSAAFPAPIEKTISKTKGRPKAPQVYTIPPPKEQMAKDKVSLTCMITDFFPEDITVEWQWNGQPAENYKNTQPIMDTDGSYFVYSKLNVQKSNWEAGNTFTCSVLHEGLHNHHTEKSLSHSPGK
notes: As m24
B2: pTT5-AR8804-3.3mIgG1Fc (Fc fusion)
heavy: B1 heavy with I29V, S56I, G64K, A96N
notes: As m24
B3: pTT5-AR8820-3.1 mIgG1Fc (Fc fusion)
heavy: B1 heavy with Q1E, V11L, S74A, T77S, K115Q, T118L
notes: As m24
B4: pTT5-AR8820-2.3mIgG1Fc (Fc fusion)
VHH-Fc: B1 heavy with Q1E, V11L, V12I, A49S, A96N, T97R, K115Q
notes: As m24
B5: pTT5-AR8820-1.3mIgG1Fc (Fc fusion)
heavy: B1 heavy with A96N
notes: As m24
B6: pTT5-AR8820-1.2mIgG1Fc (Fc fusion)
heavy: B1 heavy with L47W
notes: As m24
B7: pTT5-AR8820-2.1mIgG1Fc (Fc fusion)
VHH-Fc: B1 heavy with Q1E, V11L, V12I, A49S, K115Q
notes: As m24
B8: pTT5-AR8820-3.3 mIgG1Fc (Fc fusion)
VHH-Fc: B1 heavy with Q1E, V11L, S74A, T77S, A96N, K115Q, T118L
notes: As m24
B9: pTT5-AR8804-3.2 mIgG1Fc (Fc fusion)
heavy: B1 heavy with I29V, L47W, S56I, G64K
notes: As m24

target: T1, cynomolgus monkey CD16a on HEK293 cells expressing cyno monkey CD16a (constructed by Genscript) (cynomolgus monkey, UniProt Q8SPW2 17-254); assay: flow cytometry on HEK293 cells expressing cyno monkey CD16a
T1 construct: whole, on cells; also called cynomolgus monkey CD16a protein
T1 sequence (Q8SPW2 17-254): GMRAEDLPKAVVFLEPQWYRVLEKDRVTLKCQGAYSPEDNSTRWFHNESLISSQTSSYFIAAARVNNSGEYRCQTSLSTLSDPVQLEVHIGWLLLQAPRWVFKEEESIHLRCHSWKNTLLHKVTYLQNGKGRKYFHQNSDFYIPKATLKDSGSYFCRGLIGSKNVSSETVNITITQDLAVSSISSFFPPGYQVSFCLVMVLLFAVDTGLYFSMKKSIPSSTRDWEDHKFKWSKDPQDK
Description: To determine the cross-reactions of antibody products, HEK293 cells expressing cyno monkey CD16a (constructed by Genscript) were harvested and incubated respectively with serially diluted anti-CD16a humanized sdAb-mIgG1Fcs (max. concentration: 100 nM, 3-fold dilution), followed by fluorophore (iFluor 647)-labeled goat anti mouse IgG (H+L) secondary antibodies (Jackson immuno research; catalog #: 115-605-062). The samples were then analyzed with flow cytometry. Raw data was plotted with GraphPad Prism v6.02 software with four parameters, best-fit values program to analyze the EC₅₀. The molecules of pTT5-AR8804-3.2 mIgG1Fc, pTT5-AR8804-3.3mIgG1Fc, pTT5-AR8820-1.1mIgG1Fc, pTT5-AR8820-1.2mIgG1Fc, pTT5-AR8820-1.3mIgG1Fc, pTT5-AR8820-2.1mIgG1Fc, pTT5-AR8820-2.3mIgG1Fc, pTT5-AR8820-3.1mIgG1Fc and pTT5-AR8820-3.3 mIgG1Fc manifested good cross-reaction with cynomolgus monkey CD16a protein (FIG. 13).

Binding result, binds:
B1, B2, B3, B4, B5, B6, B7, B8, B9
